{"source": "patent US9872893B2", "about": "“Endolysins active against Staphylococcus bacteria, pharmaceutical compositions, and methods relating thereto” (priority 2014, dated 2018)", "molecules": {"B1": {"name": "PlyGRCS: endolysin of bacteriophage GRCS (ORF15), amino acids 1-250, SEQ ID NO: 5, C-terminal 6× His tag (protein)", "chain": "MKSQQQAKEWIYKHEGTGVDFDGAYGFQCMDLAVAYVYYITDGKVRMWGNAKDAINNDFKGLATVYENTPSFKPQLGDVAVYTNSQYGHIQCVISGNLDYYTCLEQNWLGGGFDGWEKATIRTHYYDGVTHFIRPKFSASNSNVLETSKVNTFGNWKQNQYGTYYRNENATFTCGFLPIFARVGSPKLSEPNGYWFQPNGYTPYDEVCLSDGLVWIGYNWQGTRYYLPVRQWNGKTGNSYSIGLPWGVFS", "modifications": "C-terminal 6xHis tag; Synthetically generated polypeptide (PlyGRCS phage (S. aureus))"}}, "key": {"[1]": {"system": "S. aureus NRS-14 static biofilms", "test": "biofilm assay (crystal violet staining)", "format": "cell-based, Staphylococcus aureus", "settings": "6.25 μg/ml, 1 hour, 1 day biofilms", "procedure": "An overnight culture of S. aureus NRS-14 (1 ml per well) was placed into 24-well CELLBIND plates (Corning) containing 500 μl of TSB per well. After an additional 24 hour incubation at 37° C., media was aspirated and samples were washed with PBS to remove unattached cells. Two-fold serial dilutions of PlyGRCS in triplicate were added in 1 ml BP buffer pH 7 and incubated at 37° C. for one hour. Liquid was aspirated and samples were washed with distilled water before drying. Biofilms were stained with 0.01% crystal violet for 10 min at room temperature. After removing the excess crystal violet, samples were washed with PBS and dried before the addition of 1 ml 10% SDS to extract the crystal violet from the biomass for quantification at OD595."}, "[2]": {"system": "SA113 ΔtagO cell walls (staphylococcal peptidoglycan)", "test": "cleavage analysis by mass spectrometry", "format": "biochemical, Staphylococcus aureus", "settings": "50 μg/ml, 18 hours, ESI-MS of digest", "procedure": "Briefly, SA113 ΔtagO cell walls (Atilano M L et al. (2010) Teichoic acids are temporal and spatial regulators of peptidoglycan cross-linking in Staphylococcus aureus. Proc Natl Acad Sci USA 107(44):18991-6; Weidenmaier C et al. (2004) Role of teichoic acids in Staphylococcus aureus nasal colonization, a major risk factor in nosocomial infections. Nat Med 10(3):243-5) were digested in 25 mM Tris, 200 mM NaCl, pH 7.4 at 37° C. for 18 hours with 50 μg/ml of PlyGRCS, filtered through 5000-MW cutoff Vivaspin 500 units (Sartorius North America Inc., Bohemia, N.Y.), and desalted using C18 Zip Tips (Millipore, Zug, Switzerland). Controls included peptidoglycan digested with the amidase domain of 2638A, a known N-acetylmuramoyl-L-alanine amidase, or undigested peptidoglycan. To further define the PlyGRCS cut site, double digests with PlyGRCS and a truncation construct containing only the CHAP domain of LysK (CHAP-K), a D-alany-glycyl endopeptidase were performed. The samples were eluted from the Zip Tips with 50:50:0.01 (v/v/v) CH3OH:H2O:[…] (pH˜2), and NanoESI-MS analysis was performed on a Q-TOF Ultima API mass spectrometer (Micromass, UK)."}, "[3]": {"system": "S. aureus NRS-14 peptidoglycan", "test": "dinitrosalicylic acid (DNSA) assay for reducing sugars", "format": "biochemical, Staphylococcus aureus", "settings": "50 μg/ml, one hour, 37° C."}, "[4]": {"system": "stationary phase S. aureus NRS-14", "test": "kinetic stability (lytic assay after incubation at indicated temperatures)", "format": "cell-based, Staphylococcus aureus", "settings": "25 μg/ml", "procedure": "(§1) Lytic activity was based on turbidity reduction assay (Nelson D C et al. (2012) Endolysins as antimicrobials. Adv Virus Res 83:299-365). Briefly, bacterial cells were centrifuged (4,000 RPM, 5 minutes, 4° C.), re-suspended in buffer and mixed 1:1 (v/v) with endolysin to a final OD600=1. OD600 readings were taken every 15 seconds for 20 minutes at 37° C. Endolysin activity was equated to the Vmax dictated by the linear portion of the resulting killing curve. Each experiment was performed in triplicate.\nTo determine dose response, PlyGRCS was serially diluted and each dosage (100 μl) was added in triplicate to a 96-well polystyrene microtiter plate (Nest Biotech Co, Ltd) just before addition of bacterial cells (100 μl) according to the turbidity reduction assay described above. For optimum pH determination, bacterial cells were suspended in 40 mM boric acid/phosphoric acid (BP) buffer, pH 3-11, and were challenged against PlyGRCS. The influence of NaCl on PlyGRCS activity was tested in BP buffer at the experimentally determined pH optimum using the same assay. The effect of divalent cations was determined using the turbidity reduction assay with several modifications. […] Kinetic stability was evaluated (Son B et al. (2012) Characterization of LysB4, an endolysin from the Bacillus cereus-infecting bacteriophage B4. BMC Microbiol 12:33) with minor modifications. […]"}, "[5]": {"system": "stationary phase S. aureus NRS-14", "test": "turbidity reduction assay (lytic activity)", "format": "cell-based, Staphylococcus aureus", "settings": "for decrease in optical density: 15 minutes", "procedure": "as §1\nTo determine dose response, PlyGRCS was serially diluted and each dosage (100 μl) was added in triplicate to a 96-well polystyrene microtiter plate (Nest Biotech Co, Ltd) just before addition of bacterial cells (100 μl) according to the turbidity reduction assay described above. For optimum pH determination, bacterial cells were suspended in 40 mM boric acid/phosphoric acid (BP) buffer, pH 3-11, and were challenged against PlyGRCS. The influence of NaCl on PlyGRCS activity was tested in BP buffer at the experimentally determined pH optimum using the same assay. The effect of divalent cations was determined using the turbidity reduction assay with several modifications. First, PlyGRCS was incubated at room temperature in PBS or PBS supplemented with 5 mM EDTA for 10 minutes. Second, the EDTA-treated samples received either no further treatment, or were supplemented with 6 mM CaCl2 or 6 mM MgCl2. Finally, the lytic active of the samples was then immediately assayed and compared to PlyGRCS in PBS prior to EDTA inactivation. Kinetic stability was evaluated (Son B et al. (2012) Characterization of LysB4, an endolysin from the Bacillus cereus-infecting bacteriophage B4. BMC Microbiol 12:33) with minor modifications. Lytic assays were performed in optimal conditions after PlyGRCS was incubated at indicated temperatures for 30 minutes and subsequently recovered on ice for 5 minutes."}, "[6]": {"system": "Staphylococcus aureus, NRS-14", "test": "plate lysis assay (spectrum of lytic activity)", "format": "cell-based", "design": "key to strength of lytic zone: strong lytic zone = ++; weak lytic zone = +; no lytic zone = −", "settings": "6 μg", "procedure": "(§2) The PlyGRCS spectrum of lytic activity was performed (Schmelcher M et al. (2012) Chimeric phage lysins act synergistically with lysostaphin to kill mastitis-causing Staphylococcus aureus in murine mammary glands. Appl Environ Microbiol 78(7):2297-305) with minor modifications. Bacterial cells were diluted in sterile PBS to an OD600=1, and 100 μl was spread on each plate. 10 μl spots (600 μg/ml) of PlyGRCS or CHAPGRCS were applied. Plates were incubated overnight at 37° C. Strength of lytic zones was defined qualitatively."}, "[7]": {"system": "Staphylococcus aureus, NRS-384", "test": "plate lysis assay (spectrum of lytic activity)", "format": "cell-based", "design": "key to strength of lytic zone: strong lytic zone = ++; weak lytic zone = +; no lytic zone = −", "settings": "6 μg; S. aureus NRS-384, MRSA", "procedure": "as §2"}, "[8]": {"system": "Staphylococcus aureus, NRS-71", "test": "plate lysis assay (spectrum of lytic activity)", "format": "cell-based", "design": "key to strength of lytic zone: strong lytic zone = ++; weak lytic zone = +; no lytic zone = −", "settings": "6 μg", "procedure": "as §2"}, "[9]": {"system": "Staphylococcus epidermidis, NRS-101", "test": "plate lysis assay (spectrum of lytic activity)", "format": "cell-based", "design": "key to strength of lytic zone: strong lytic zone = ++; weak lytic zone = +; no lytic zone = −", "settings": "6 μg", "procedure": "as §2"}, "[10]": {"settings": "highest dose of 28 to 1.75 μg/ml dose response"}}}
{"molecule": "B1", "values": [{"measurement": "decrease in biofilm biomass", "setting": "[1]", "value": "~50", "unit": "%"}, {"measurement": "hydrolytic activities (cleavage specificity)", "setting": "[2]", "value": "both N-acetylmuramoyl-L-alanine amidase and D-alanyl-glycyl endopeptidase hydrolytic activities"}, {"measurement": "glycosidase activity (reducing sugar release)", "setting": "[3]", "value": "did not show any glycosidase activity"}, {"measurement": "residual lytic activity", "setting": "[4]; after 30 minutes at 4° C. to 37° C.", "value": "> 90", "unit": "%"}, {"measurement": "lytic activity after heating (in words)", "setting": "[4]; after 30 minutes at ≧40° C.", "value": "lytic activity was not observed"}, {"measurement": "decrease in optical density", "setting": "[5]; 25 μg/mL", "value": 70, "unit": "%"}, {"measurement": "lytic activity of EDTA-treated enzyme with excess CaCl2, compared to prior to EDTA treatment", "setting": "[5]; 5 mM EDTA then 6 mM CaCl2", "value": "nearly twice the lytic activity"}, {"measurement": "lytic activity of EDTA-treated enzyme with magnesium", "setting": "[5]; 5 mM EDTA then 6 mM MgCl2", "value": "mimicked that of the EDTA-treated sample"}, {"measurement": "lytic activity after EDTA treatment", "setting": "[5]; 5 mM EDTA, 10 minutes", "value": "devoid of lytic activity"}, {"measurement": "decrease in activity by NaCl", "setting": "[5]; 500 mM NaCl, BP buffer pH 7.0", "value": "~35", "unit": "%"}, {"measurement": "optimal pH for lytic activity", "setting": "[5]; BP buffer, pH range 3.0 to 11.0", "value": 7.0}, {"measurement": "time to 50% decrease in optical density", "setting": "[5]; [10]", "value": "< 10", "unit": "min"}, {"measurement": "decrease in optical density", "setting": "[5]; [10]", "value": 70, "unit": "%"}, {"measurement": "lytic activity on plates (in words)", "setting": "[6]; S. aureus NRS-14", "value": "greatest strength"}, {"measurement": "strength of lytic zone", "setting": "[6]; S. aureus NRS-14, VISA", "value": "++"}, {"measurement": "strength of lytic zone", "setting": "[7]", "value": "+"}, {"measurement": "lytic activity on plates (in words)", "setting": "[8]; S. aureus NRS-71", "value": "greatest strength"}, {"measurement": "strength of lytic zone", "setting": "[8]; S. aureus NRS-71, MRSA", "value": "++"}, {"measurement": "lytic activity on plates (in words)", "setting": "[9]; S. epidermidis NRS-101", "value": "greatest strength"}, {"measurement": "strength of lytic zone", "setting": "[9]; S. epidermidis NRS-101, MRSE", "value": "++"}]}
